Results published in the RNAGym collection of RNA variant scans (doi:10.7554/elife.80360).

B1: HDV Ribozyme (parent)
chain: GGCCGGCAUGGUCCCAGCCUCCUCGCUGGCGCCGGCUGGGCAACAUUCCGAGGGGACCGUCCCCUCGGUAAUGGCGAAUGGGACCCA

Variants of: B1
Experiment: self-cleavage, relative activity (ratio to wild type); higher = more cleavage; co-transcriptional

Compared with C14G U27A, C33G C63U is lower in self-cleavage: 0.7 for the first, 0.173 for the second.

First: C22G G31U
Second: G52U G68C
The self-cleavage of the first is lower: 0.0361 for the first, 0.185 for the second.

Going from C18U U79C to G55A G67U, the self-cleavage rises from 0.168 to 1.12.

First: C14U G54C
Second: G53A G81U
The self-cleavage of the first is higher: 1.2 for the first, 0.272 for the second.

First: G67A A87G
Second: C3U C19G
The self-cleavage of the first is higher: 0.936 for the first, 0.0171 for the second.

Going from U37G G73C to G50C A71U, the self-cleavage rises from 0.0791 to 0.554.

Compared with U69C A78C, G1A A77U is lower in self-cleavage: 0.322 for the first, 0 for the second.

Compared with C14U U37G, C63G G81U is higher in self-cleavage: 0.199 for the first, 0.375 for the second.

First: U27C C66G
Second: C30A G52C
The self-cleavage of the first is higher: 0.692 for the first, 0.58 for the second.

Going from G54A A70C to C21U C66A, the self-cleavage falls from 0.779 to 0.153.

First: G1U C63G
Second: C7G C57G
The self-cleavage of the first is higher: 0.453 for the first, 0.208 for the second.

Going from U9C G25C to C14U C48G, the self-cleavage rises from 0.0615 to 1.08.

Going from G54A C62A to C61U G74U, the self-cleavage falls from 0.917 to 0.554.

Compared with A51C U79G, G17C C36U is lower in self-cleavage: 0.415 for the first, 0.0339 for the second.

Compared with G2C G35U, C7A U23C is higher in self-cleavage: 0.0747 for the first, 0.935 for the second.

Going from C57A C75U to U27A U46C, the self-cleavage rises from 0.0978 to 0.733.

Going from A16G U72A to C15A C30A, the self-cleavage falls from 0.499 to 0.326.

Going from G17U U27G to U69G U79A, the self-cleavage rises from 0.522 to 0.935.

First: U47A A51G
Second: U46A G81A
The self-cleavage of the first is higher: 0.902 for the first, 0.271 for the second.

Compared with A45C, G25A C32G is lower in self-cleavage: 0.702 for the first, 0.0623 for the second.

Compared with G17C C85U, G11A C48U is higher in self-cleavage: 0.156 for the first, 0.326 for the second.

Compared with G10C G55C, C49U A71U is higher in self-cleavage: 0.759 for the first, 0.875 for the second.

Compared with A56U C86G, G39U A83C is lower in self-cleavage: 1.19 for the first, 0.157 for the second.

Compared with U9A A87G, C33G A83G is lower in self-cleavage: 1.13 for the first, 0.0963 for the second.

Compared with G50A C58A, G2A U9C is lower in self-cleavage: 1.12 for the first, 0.113 for the second.

Compared with U23C C58U, C48A C57A is higher in self-cleavage: 0.928 for the first, 0.978 for the second.

Going from C30U G59U to A16G A78G, the self-cleavage falls from 0.831 to 0.465.

First: C62G G74U
Second: U9A A83U
The self-cleavage of the first is lower: 0.372 for the first, 0.643 for the second.

Going from A8G G29C to A71G U72G, the self-cleavage rises from 0 to 0.516.

First: U23C G25U
Second: C57G G68U
The self-cleavage of the first is lower: 0.158 for the first, 1.01 for the second.

First: A42G G55U
Second: G10C C36A
The self-cleavage of the first is higher: 0.354 for the first, 0.0627 for the second.

Compared with G68C C75G, U23C G38A is higher in self-cleavage: 0.128 for the first, 0.17 for the second.

First: A8C U9C
Second: G6C C7U
The self-cleavage of the first is higher: 0.962 for the first, 0.787 for the second.

First: G68A U72C
Second: G39U
The self-cleavage of the first is lower: 0.594 for the first, 0.727 for the second.

Compared with G55A C66U, C13U C85G is lower in self-cleavage: 1.11 for the first, 0.332 for the second.

Compared with C36U, G25A G40A is lower in self-cleavage: 0.744 for the first, 0.317 for the second.

First: G6U G28U
Second: C4A A83G
The self-cleavage of the first is lower: 0.104 for the first, 0.234 for the second.

First: C24U G52A
Second: G11C A56U
The self-cleavage of the first is higher: 0.554 for the first, 0.111 for the second.

Going from G29U C41A to C75A G80C, the self-cleavage rises from 0.0755 to 0.18.

Compared with C7G G50U, C13U G81U is lower in self-cleavage: 0.237 for the first, 0.163 for the second.

Compared with G25C C57U, C7A U72A is higher in self-cleavage: 0.219 for the first, 0.308 for the second.

Going from A45C U60A to A45C U60G, the self-cleavage falls from 0.883 to 0.63.

First: A70U G82C
Second: G6C A71U
The self-cleavage of the first is higher: 0.35 for the first, 0.138 for the second.

First: C44A C66A
Second: G10U A83G
The self-cleavage of the first is higher: 0.628 for the first, 0.221 for the second.

First: C18A A77G
Second: G50C A83G
The self-cleavage of the first is lower: 0.0354 for the first, 0.491 for the second.

First: C24A C32G
Second: C7G U47G
The self-cleavage of the first is higher: 0.213 for the first, 0 for the second.

Going from G2A C61A to U23G C63G, the self-cleavage rises from 0.351 to 0.688.

Compared with G39U G73C, C15U C86A is higher in self-cleavage: 0.3 for the first, 1.1 for the second.

Going from C63G G82U to U20C C48G, the self-cleavage falls from 0.289 to 0.0594.

Compared with C66A A77U, C13U A16G is higher in self-cleavage: 0.776 for the first, 0.978 for the second.

First: C49U A70G
Second: G50C U79C
The self-cleavage of the first is higher: 0.748 for the first, 0.554 for the second.

Compared with U9A U20G, G82C A83U is higher in self-cleavage: 0.151 for the first, 0.237 for the second.

Going from G34A A43U to C61A G80A, the self-cleavage rises from 0 to 0.41.

First: C33U A45G
Second: C4G C85A
The self-cleavage of the first is higher: 0.886 for the first, 0.435 for the second.

First: C30A C84U
Second: A51G G74U
The self-cleavage of the first is lower: 0.13 for the first, 0.434 for the second.

First: G1C C61U
Second: U23G A51U
The self-cleavage of the first is lower: 0.185 for the first, 0.705 for the second.

First: C19A U27G
Second: C26G G38C
The self-cleavage of the first is higher: 0.158 for the first, 0.151 for the second.

First: C33U U37G
Second: G1U C44G
The self-cleavage of the first is lower: 0.0462 for the first, 0.271 for the second.

First: A42G G68U
Second: A56C G67C
The self-cleavage of the first is lower: 0.403 for the first, 1.01 for the second.

First: U69C G81C
Second: C13U U46A
The self-cleavage of the first is higher: 0.231 for the first, 0.219 for the second.

First: A43U A83G
Second: G28A A71U
The self-cleavage of the first is higher: 0.0986 for the first, 0.0292 for the second.

Compared with U60C G76C, C19U G50C is lower in self-cleavage: 1.16 for the first, 0.332 for the second.

Going from A56C to U23G U46A, the self-cleavage falls from 1 to 0.712.

Going from C48G A83U to G11A U79G, the self-cleavage falls from 0.554 to 0.0923.

Compared with C3U C61U, G1A C41U is lower in self-cleavage: 0.923 for the first, 0.237 for the second.

First: U9A A45G
Second: G74C C85A
The self-cleavage of the first is higher: 0.733 for the first, 0.217 for the second.

Going from C19U C41U to C13G A51U, the self-cleavage falls from 0.173 to 0.

First: C18A C48A
Second: C4G C18U
The self-cleavage of the first is higher: 0.0369 for the first, 0.0282 for the second.

Compared with C14G C18G, C19G C66G is higher in self-cleavage: 0 for the first, 0.141 for the second.

Compared with U37G A83U, C58U A77U is higher in self-cleavage: 0.156 for the first, 0.68 for the second.

First: G29A G39C
Second: U72A A83C
The self-cleavage of the first is lower: 0.0941 for the first, 0.219 for the second.

Compared with C4G A77G, A16G G68A is higher in self-cleavage: 0.172 for the first, 0.928 for the second.

Compared with G35U C44G, A70U C75A is higher in self-cleavage: 0.0755 for the first, 0.0898 for the second.

Compared with C4A A56U, C33A G40A is lower in self-cleavage: 0.321 for the first, 0.214 for the second.

Going from C24A G82U to A56C G74A, the self-cleavage rises from 0.328 to 0.65.

Going from G25C C44U to G11A C13A, the self-cleavage falls from 0.259 to 0.0791.

First: U9C C22U
Second: C61G A87U
The self-cleavage of the first is lower: 0.727 for the first, 0.943 for the second.

First: G29A G55A
Second: C66U G82A
The self-cleavage of the first is lower: 0.208 for the first, 0.649 for the second.

Going from C15G C19A to G6C U20C, the self-cleavage rises from 0.0831 to 0.0923.

Compared with A78C A83C, G52A U72C is higher in self-cleavage: 0.151 for the first, 0.591 for the second.

First: G10U U72G
Second: C36U A43C
The self-cleavage of the first is higher: 0.407 for the first, 0 for the second.

Going from A8U C49U to A8G U20C, the self-cleavage falls from 0.739 to 0.217.

Going from G34U C63U to G6C A56U, the self-cleavage rises from 0.166 to 0.214.

With A51G A83G the self-cleavage was 0.916.
